Assays:
[1] = tested on: 4T1, a breast cancer cell line; conditions: 4T1 in C3H mice; FIG. 7
Method: 2×10^6 pieces of 4T1, a breast cancer cell line, were injected into the back of C3H mice, and anticancer drugs were administered to each experimental group from the 5th day when the tumor was formed.

[2] = tested on: anaplastic thyroid cancer cell line FRO; test: thyroid cancer mouse model, combination with lenvatinib; type: in vivo, nu/nu mice
Source text: We measured tumor size with a caliper and calculated tumor volume using the following equation: volume=½× a×b2, where a=long tumor diameter and b=short tumor diameter.

[3] = biological target: T1, Recombinant human CXCL16 (rhCXCL16) protein (human, UniProt Q9H2A7 30-118, limits assumed); test: BLI (ForteBio), antibody captured on biosensor, rhCXCL16 in solution, 25 C
T1 construct: Bought recombinant protein (976-CX, R&D systems); also called CXCL16 antigen; 976-CX (R&D systems)
T1 sequence: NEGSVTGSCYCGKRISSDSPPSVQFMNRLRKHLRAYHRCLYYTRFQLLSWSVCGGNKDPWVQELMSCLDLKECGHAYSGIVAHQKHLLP
Method: (§1) The binding characteristics of 25 CXCL16 antibodies were analyzed using the bio-light interferometry (ForteBio). All antibodies were diluted in freshly prepared running buffer. Antibodies were immobilized onto the surface of a series of biosensors using the capture methods at 0.3 μg/mL. Recombinant human CXCL16 (rhCXCL16) protein (100 nM) was passed over the surface to generate a binding response for 10 minutes. Binding data for the antibody and antigen interactions were collected at 25° C. on the biosensors. Then, the running buffer was passed for 10 minutes to dissociate them. The association constant (kₐ) and the dissociation constant (kₐ) were observed, and the equilibrium binding constant (KD) was calculated. […] R2: The value indicating how well the fit and experimental data correlate; X²: The measure of error between the experimental data and fitted line.

[4] = biological target: T1, Recombinant human CXCL16 (rhCXCL16) …; test: as above; remark: listed apart in the source
[5] = biological target: T2, Recombinant mouse CXCL16 antigen (mouse, UniProt Q8BSU2 27-114, limits assumed); test: ELISA, recombinant mouse CXCL16 immobilized on the plate, HRP-labeled anti-human IgG detection, OD 450 nm
T2 construct: Bought recombinant protein (503-CX, R&D systems); also called 503-CX (R&D systems)
T2 sequence: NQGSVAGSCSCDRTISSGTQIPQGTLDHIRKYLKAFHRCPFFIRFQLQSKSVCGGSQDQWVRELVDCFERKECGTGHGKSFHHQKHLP
Method: To evaluate the cross-reactivity with mouse CXCL16 antigen, the same ELISA experiment was performed with recombinant mouse CXCL16 antigen (503-CX, R&D systems). The mouse CXCL16 antigen was immobilized onto 96-well plates by incubation for 2 hours at room temperature. Non-specific binding sites were blocked by incubating with 1% BSA in PBS overnight at 4° C. After coating, the plates were washed with PBS. Humanized CXCL16 antibodies at various concentration (0.00 1˜10 nM) were incubated with the immobilized antigen for 2 hours at room temperature. After binding, the plates were washed, incubated with HRP-labeled anti-human IgG antibody (W4031, Promega, USA) for 0.5 hours, and developed using the substrate solution (DY008B, R&D systems). The binding affinity of humanized antibodies was similar to that of IgG antibody.

[6] = biological target: T3, Recombinant human CXCL16 (rhCXCL16) protein (Homo sapiens, UniProt Q9H2A7); test: bio-light interferometry (ForteBio) binding analysis; conditions: antibody captured on biosensor, rhCXCL16 100 nM, 25° C.; ND = signal was not detectable
T3 sequence (Q9H2A7 30-118): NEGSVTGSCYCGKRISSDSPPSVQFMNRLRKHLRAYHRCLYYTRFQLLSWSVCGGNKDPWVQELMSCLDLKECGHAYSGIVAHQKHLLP
Method: as §1, with “(ka)” for “(kₐ)”, “X^2:” for “X²:”

Molecule: CC(=O)O[C@H]1C(=O)[C@@]2(C)[C@H]([C@H](OC(=O)c3ccccc3)[C@]3(O)C[C@H](OC(=O)[C@H](O)[C@@H](NC(=O)c4ccccc4)c4ccccc4)C(C)=C1C3(C)C)[C@]1(OC(C)=O)CO[C@@H]1C[C@@H]2O [Taxol, paclitaxel]
- therapeutic effect (tumor growth) [1]: did not have a clear therapeutic effect

Molecule: COc1cc2nccc(Oc3ccc(NC(=O)NC4CC4)c(Cl)c3)c2cc1C(N)=O [lenvatinib]
- therapeutic effect (tumor growth) ([2]; after phase 1, rate the same as that of the control group): therapeutic effect of lenvatinib was lowered
- therapeutic effect (tumor growth) ([2]; phase 1 (up to day 22), lenvatinib orally 30 mg/kg/day five times a week): therapeutic effect of lenvatinib was maintained

B1: HC5LC5 (antibody, human IgG1, kappa, V domains shown)
VH: EVQLVESGGGLVQPGGSLKLSCAASGFTFSNAVMNWVRQASGKGLEWVARIRTKPNNYATFYADSVKGRFTFSRDDSKNTAYLQMNSLKTEDTAMYYCTAWTTEGIYWGQGTLVTVSS
VL: DIVMTQSPSSLAVSAGERATINCKSSQSLLYSGNQKNYLAWYQQKPGQSPKLLIYWASTRQSGVPDRFIGSGSGTDFTLTISSLQAEDVAIYYCQQYYDTPWTFGGGTKLELKR
notes: Humanized; human IgG1 / kappa constant domains; also called HCSLCS; humanized CXCL16 antibody HC5LC5
- Kd [3]: < 0.001 nM
- koff [3]: < 1e-07 s⁻¹
- kon [3]: 18200 M⁻¹ s⁻¹
- Res@3.7 nM [4]: 0.231
- binding result [5]: no binding (tested: 1500 ng/mL)

B2: HC5LC2 (antibody, human IgG1, kappa, V domains shown)
VH: EVQLVESGGGLVQPGGSLKLSCAASGFTFSNAVMNWVRQASGKGLEWVARIRTKPNNYATFYADSVKGRFTFSRDDSKNTAYLQMNSLKTEDTAMYYCTAWTTEGIYWGQGTLVTVSS
VL: DIVMTQSPSSLAVSLGETATINCKSSQSLLYSGNQKNYLAWYQQKPGQPPKLLIYWASTRQSGVPDRFTGSGAGTDFTLTISSVQAEDLAIYYCQQYYDTPWTFGGGTKVEIKR
notes: Humanized; human IgG1 / kappa constant domains; also called HCSLC2; humanized CXCL16 antibody HC5LC2
- Kd [3]: 2.5 nM
- koff [3]: 6.07e-05 s⁻¹
- kon [3]: 24300 M⁻¹ s⁻¹
- Res@3.7 nM [4]: 0.152
- binding result [5]: no binding (tested: 1500 ng/mL)

B3: HC0LC0: chimeric antibody that binds to human CXCL16; rat variable regions (CDRs SEQ ID NOs 12-17), heavy SEQ ID NO: 32, light SEQ ID NO: 34 (antibody)
heavy: ACCMGWTLVFLFLLSVTAGVHSAVQLVESGGGLVQPKESLKISCAASGFTFSNAVMNWVRQAPGKGLEWVARIRTKPNNYATFYADSVKGRFTFSRDDSKSMVYLQMDNLKTEDTAMYYCTAWTTEGIYWGQGTLVTVSSAETTAPSVYPLAPGTALKSNSMVTLGCLVKGYFPEPVTVTWNSGALSSGVHTFPAVLQSGLYTLTSSVTVPSSTWSSQAVTCNVAHPASSTKVDKKIVPRECNPCGCTGSEVSSVFIFPPKTKDVLTITLTPKVTCVVVDISQNDPEVRFSWFIDDVEVHTAQTHAPEKQSNSTLRSVSELPIVHRDWLNGKTFKCKVNSGAFPAPIEKSISKPEGTPRGPQVYTMAPPKEEMTQSQVSITCMVKGFYPPDIYTEWKMNGQPQENYKNTPPTMDTDGSYFLYSKLNVKKETWQQGNTFTCSVLHEGLHNHHTEKSLSHSPGK
light: ACCMVSSAQFLGLLLLCFQGTRCDIVMTQSPSSLAVSAGETVTINCKSSQSLLYSGNQKNYLAWYQQKPGQSPKLLIYWASTRQSGVPDRFIGSGSGTDFTLTISSVQAEDLAIYYCQQYYDTPWTFGGGTKLELKRADAAPTVSIFPPSTEQLATGGASVVCLMNNFYPRDISVKWKIDGTERRDGVLDSVTDQDSKDSTYSMSSTLSLTKADYESHNLYTCEVVHKTSSSPVVKSFNRNEC
- kd [6]: <1e-07 s⁻¹
